Experimental data reported in patent publication US20240034813A1 (Janssen / Centocor, published 2024).

Key:
[1] = target: T1, recombinant cMet/HGFR with c-terminal His-tag, Cy5-labeled (UniProt P08581 25-932, limits assumed, Cy5 label (reacted with Cy5 Mono NHS Ester; sites not stated)); assay: competitive TR-FRET (Eu-amivantamab/Cy5-c-MET), EC50 ratio vs Reference Material; Ex. 11 drug product, 9 months at 5 C
T1 construct: Commercial protein; also called Cy5-c-MET; Cy5-labeled c-MET antigen; not shown: C-terminal His-tag
Source text: (§1) In this procedure, varying concentrations of unlabeled bispecific EGFR-cMet antibody sample compete with donor fluorophore (Europium (Eu) chelate) labeled bispecific EGFR-cMet antibody for binding to an acceptor fluorophore (Cy5)-labeled c-MET antigen. Excitation of the donor fluorophore results in a transfer of energy to the bound acceptor fluorophore (FRET process). The resultant FRET is detected by emission of light at 665 nm using a microplate reader capable of measuring time-resolved fluorescence. Sample dose response curves are compared to the Reference Material (RM).
(§2) c-MET Binding Materials and Methods. Certified commercial cMet, a recombinant cMet/HGFR with c-terminal His-tag is reacted with certified commercial Cy5 Mono NHS Ester to produce Cy5-labeled c-MET. Validated bispecific EGFR-cMet antibody is reacted with certified commercial Europium (Eu) chelate to produce Eu labeled bispecific EGFR-cMet antibody. […] Fluorescence is then measured by spectrophotometry at 665 nm, plotted against antibody concentration and analyzed by a four-parameter logistic model. The antibody concentration required to obtain half of the maximum fluorescence response (EC50) is determined for RM, assay control and samples. The potencies of assay control and samples are calculated based on the ratio of the sample (or control) and RM EC50 values and reported as a percentage activity relative to the RM.

[2] = target: T2, recombinant human EGFR/ErbB1/HER1 with C-terminal His tag, Cy5-labeled (human, UniProt P00533 25-645, Cy5 label (reacted with Cy5 Mono NHS Ester; sites not stated)); assay: competitive TR-FRET (Eu-amivantamab/Cy5-EGFR), EC50 ratio vs Reference Material; Ex. 11 drug product, 3 months at 25 C
T2 construct: Commercial protein; also called Cy5-EGFR; Cy5-labeled EGFR antigen; not shown: C-terminal His tag
Source text: as §1, with “EGFR” for “c-MET”, “RM.” for “Reference Material (RM).”
as §2, with “EGFR” for “c-MET”, “EGFR,” for “cMet,”, “human EGFR/ErbB1/HER1” for “cMet/HGFR”, “C-terminal His tag” for “c-terminal His-tag”, “EGFR.” for “c-MET.”, “Eu-labeled” for “Eu labeled”

[3] = target: T2, recombinant human EGFR/ErbB1/HER1 with …; assay: competitive TR-FRET (Eu-amivantamab/Cy5-EGFR), EC50 ratio vs Reference Material; Ex. 3 acetate formulation with PS80, T0
Source text: as §1, with “EGFR” for “c-MET”, “RM.” for “Reference Material (RM).”
as §2, with “EGFR” for “c-MET”, “EGFR,” for “cMet,”, “human EGFR/ErbB1/HER1” for “cMet/HGFR”, “C-terminal His tag” for “c-terminal His-tag”, “EGFR.” for “c-MET.”, “Eu-labeled” for “Eu labeled”

[4] = target: T1, recombinant cMet/HGFR with c-terminal …; assay: competitive TR-FRET (Eu-amivantamab/Cy5-c-MET), EC50 ratio vs Reference Material; Ex. 11 drug product, 0 months, 25 C table
Source text: as §1, §2

[5] = target: T1, recombinant cMet/HGFR with c-terminal …; assay: competitive TR-FRET (Eu-amivantamab/Cy5-c-MET), EC50 ratio vs Reference Material; Ex. 11 drug product, 0 months, 40 C table
Source text: as §1, §2

[6] = target: T1, recombinant cMet/HGFR with c-terminal …; assay: competitive TR-FRET (Eu-amivantamab/Cy5-c-MET), EC50 ratio vs Reference Material; Ex. 12 drug product with rHuPH20, 1 month at 40 C
Source text: as §1, §2

[7] = target: T2, recombinant human EGFR/ErbB1/HER1 with …; assay: competitive TR-FRET (Eu-amivantamab/Cy5-EGFR), EC50 ratio vs Reference Material; Ex. 2 Formulation 2 (50 mM histidine), T0, 5 C table
Source text: as §1, with “EGFR” for “c-MET”, “RM.” for “Reference Material (RM).”
as §2, with “EGFR” for “c-MET”, “EGFR,” for “cMet,”, “human EGFR/ErbB1/HER1” for “cMet/HGFR”, “C-terminal His tag” for “c-terminal His-tag”, “EGFR.” for “c-MET.”, “Eu-labeled” for “Eu labeled”

[8] = target: T2, recombinant human EGFR/ErbB1/HER1 with …; assay: competitive TR-FRET (Eu-amivantamab/Cy5-EGFR), EC50 ratio vs Reference Material; Ex. 2 Formulation 2 (50 mM histidine), 3 months at 25 C
Source text: as §1, with “EGFR” for “c-MET”, “RM.” for “Reference Material (RM).”
as §2, with “EGFR” for “c-MET”, “EGFR,” for “cMet,”, “human EGFR/ErbB1/HER1” for “cMet/HGFR”, “C-terminal His tag” for “c-terminal His-tag”, “EGFR.” for “c-MET.”, “Eu-labeled” for “Eu labeled”

[9] = target: T1, recombinant cMet/HGFR with c-terminal …; assay: competitive TR-FRET (Eu-amivantamab/Cy5-c-MET), EC50 ratio vs Reference Material; Ex. 2 Formulation 2 (50 mM histidine), 3 months at 40 C
Source text: as §1, §2

B1: amivantamab (bispecific antibody, human IgG1, kappa)
heavy 1: not shown
light 1: not shown
heavy 2: not shown
light 2: DIQMTQSPSSVSASVGDRVTITCRASQGISNWLAWFQHKPGKAPKLLIYAASSLLSGVPSRFSGSGSGTDFTLTISSLQPEDFATYYCQQANSFPITFGQGTRLEIKRTVAAPSVFIFPPSDEQLKSGTASVVCLLNNFYPREAKVQWKVDNALQSGNSQESVTEQDSKDSTYSLSSTLTLSKADYEKHKVYACEVTHQGLSSPVTKSFNRGEC
notes: The samples tested were high concentration (160 mg/mL) formulations, fresh or stored or stressed; also called JNJ-61186372; bispecific EGFR-cMet antibody
cMET Binding activity relative to Reference Material (%) [1]: 101%
EGFR Binding activity relative to Reference Material (%) [2]: 71%
EGFR Binding % activity relative to RM [3]: 103%
cMET Binding activity relative to Reference Material (%) [4]: 85%
cMET Binding activity relative to Reference Material (%) [5]: 85%
cMET Binding activity relative to Reference Material (%) [6]: 81%
EGFR Binding % activity relative to RM [7]: 103%
EGFR Binding % activity relative to RM [8]: 77%
cMET Binding % activity relative to RM [9]: 77%
